B1: POU domain, class 3, transcription factor 3, residues 408 to 463; numbered along this chain, P20264 (parent)
chain: KKRTSIEVSVKGALESHFLKCPKPSAQEITNLADSLQLEKEVVRVWFCNRRQKEKR

This passage reports abundance fitness results from the Human Domainome abundance scans (Beltran et al. 2025).

± gives the uncertainty stated by the source.

Variants of B1 are the subject of the data set. The experiment in a line: abundance fitness (aPCA) (normalised: wild type 0, dead -1); higher = more abundant; growth selection in yeast, the domain comes from the species named. Conditions: Homo sapiens.
On to KKRTSIEVSVKGALESHFLKCPKPSASEITNLADSLQLEKEVVRVWFCNRRQKEKR, for which the abundance fitness is -0.098 ± 0.073.
Consider KKRTSIEVSVKGALESHFLKCPKPSANEITNLADSLQLEKEVVRVWFCNRRQKEKR, for which the abundance fitness was 0.098 ± 0.19.
On to KKRTSIEVSVKGALESHFLKCPKPSAREITNLADSLQLEKEVVRVWFCNRRQKEKR, for which the abundance fitness was -0.055 ± 0.058.
With KKRTSIEVSVKGALESHFLKCPKPSAFEITNLADSLQLEKEVVRVWFCNRRQKEKR, the abundance fitness was -0.27 ± 0.13.
For KKRTSIEVSVKGALESHFLKCPKPSAWEITNLADSLQLEKEVVRVWFCNRRQKEKR, the abundance fitness was -0.222 ± 0.076.
For the variant KKRTSIEVSVKGALESHFLKCPKPSALEITNLADSLQLEKEVVRVWFCNRRQKEKR, the abundance fitness was -0.091 ± 0.068.
Consider KKRTSIEVSVKGALESHFLKCPKPSAKEITNLADSLQLEKEVVRVWFCNRRQKEKR, for which the abundance fitness was -0.095 ± 0.11.
As for KKRTSIEVSVKGALESHFLKCPKPSACEITNLADSLQLEKEVVRVWFCNRRQKEKR, the abundance fitness is -0.171 ± 0.1.
For the variant KKRTSIEVSVKGALESHFLKCPKPSAMEITNLADSLQLEKEVVRVWFCNRRQKEKR, the abundance fitness is -0.194 ± 0.1.
As for KKRTSIEVSVKGALESHFLKCPKPSAHEITNLADSLQLEKEVVRVWFCNRRQKEKR, the abundance fitness is -0.123 ± 0.12.
Consider KKRTSIEVSVKGALESHFLKCPKPSAGEITNLADSLQLEKEVVRVWFCNRRQKEKR, for which the abundance fitness is -0.076 ± 0.067.
With KKRTSIEVSVKGALESHFLKCPKPSAAEITNLADSLQLEKEVVRVWFCNRRQKEKR, the abundance fitness is -0.049 ± 0.081.
On to KKRTSIEVSVKGALESHFLKCPKPSAIEITNLADSLQLEKEVVRVWFCNRRQKEKR, for which the abundance fitness is -0.312 ± 0.16.
With KKRTSIEVSVKGALESHFLKCPKPSAPEITNLADSLQLEKEVVRVWFCNRRQKEKR, the abundance fitness was -0.279 ± 0.084.
On to KKRTSIEVSVKGALESHFLKCPKPSAEEITNLADSLQLEKEVVRVWFCNRRQKEKR, for which the abundance fitness was -0.036 ± 0.11.
The same measure for KKRTSIEVSVKGALESHFLKCPKPSATEITNLADSLQLEKEVVRVWFCNRRQKEKR: -0.151 ± 0.11; for KKRTSIEVSVKGALESHFLKCPKPSAVEITNLADSLQLEKEVVRVWFCNRRQKEKR: -0.11 ± 0.07; for KKRTSIEVSVKGALESHFLKCPKPSAYEITNLADSLQLEKEVVRVWFCNRRQKEKR: -0.195 ± 0.15.
Take KKRTSIEVSVKGALESHFLKCPKPSDQEITNLADSLQLEKEVVRVWFCNRRQKEKR: the abundance fitness is -0.004 ± 0.11.
To KKRTSIEVSVKGALESHFLKCPKPSFQEITNLADSLQLEKEVVRVWFCNRRQKEKR belongs -0.297 ± 0.15; to KKRTSIEVSVKGALESHFLKCPKPSCQEITNLADSLQLEKEVVRVWFCNRRQKEKR, -0.102 ± 0.087; to KKRTSIEVSVKGALESHFLKCPKPSMQEITNLADSLQLEKEVVRVWFCNRRQKEKR, -0.063 ± 0.1.
With KKRTSIEVSVKGALESHFLKCPKPSQQEITNLADSLQLEKEVVRVWFCNRRQKEKR, the abundance fitness is -0.024 ± 0.11.
On to KKRTSIEVSVKGALESHFLKCPKPSHQEITNLADSLQLEKEVVRVWFCNRRQKEKR, for which the abundance fitness was 0.071 ± 0.17.
KKRTSIEVSVKGALESHFLKCPKPSRQEITNLADSLQLEKEVVRVWFCNRRQKEKR: the abundance fitness is -0.073 ± 0.064.
Take KKRTSIEVSVKGALESHFLKCPKPSLQEITNLADSLQLEKEVVRVWFCNRRQKEKR: the abundance fitness was -0.005 ± 0.074.
Consider KKRTSIEVSVKGALESHFLKCPKPSYQEITNLADSLQLEKEVVRVWFCNRRQKEKR, for which the abundance fitness is -0.087 ± 0.13.
Take KKRTSIEVSVKGALESHFLKCPKPSPQEITNLADSLQLEKEVVRVWFCNRRQKEKR: the abundance fitness amounted to 0.039 ± 0.13.
In the case of KKRTSIEVSVKGALESHFLKCPKPSEQEITNLADSLQLEKEVVRVWFCNRRQKEKR, the abundance fitness was 0.031 ± 0.087.
Regarding KKRTSIEVSVKGALESHFLKCPKPSSQEITNLADSLQLEKEVVRVWFCNRRQKEKR, the abundance fitness is -0.168 ± 0.08.
Turning to KKRTSIEVSVKGALESHFLKCPKPSGQEITNLADSLQLEKEVVRVWFCNRRQKEKR, the abundance fitness was -0.086 ± 0.06.
Turning to KKRTSIEVSVKGALESHFLKCPKPSWQEITNLADSLQLEKEVVRVWFCNRRQKEKR, the abundance fitness is -0.155 ± 0.083.
In the case of KKRTSIEVSVKGALESHFLKCPKPSTQEITNLADSLQLEKEVVRVWFCNRRQKEKR, the abundance fitness is -0.081 ± 0.1.
Turning to KKRTSIEVSVKGALESHFLKCPKPSVQEITNLADSLQLEKEVVRVWFCNRRQKEKR, the abundance fitness was -0.1 ± 0.069.
Turning to KKRTSIEVSVKGALESHFLKCPKPFAQEITNLADSLQLEKEVVRVWFCNRRQKEKR, the abundance fitness was -0.773 ± 0.25.
In the case of KKRTSIEVSVKGALESHFLKCPKPMAQEITNLADSLQLEKEVVRVWFCNRRQKEKR, the abundance fitness was -0.681 ± 0.15.
On to KKRTSIEVSVKGALESHFLKCPKPLAQEITNLADSLQLEKEVVRVWFCNRRQKEKR, for which the abundance fitness is -0.559 ± 0.078.
For the variant KKRTSIEVSVKGALESHFLKCPKPEAQEITNLADSLQLEKEVVRVWFCNRRQKEKR, the abundance fitness was -0.287 ± 0.11.
For KKRTSIEVSVKGALESHFLKCPKPWAQEITNLADSLQLEKEVVRVWFCNRRQKEKR, the abundance fitness is -0.885 ± 0.11.
With KKRTSIEVSVKGALESHFLKCPKPNAQEITNLADSLQLEKEVVRVWFCNRRQKEKR, the abundance fitness was -0.092 ± 0.16.
For the variant KKRTSIEVSVKGALESHFLKCPKPQAQEITNLADSLQLEKEVVRVWFCNRRQKEKR, the abundance fitness is -0.537 ± 0.11.
As to KKRTSIEVSVKGALESHFLKCPKPIAQEITNLADSLQLEKEVVRVWFCNRRQKEKR, the abundance fitness was -0.84 ± 0.41.
To KKRTSIEVSVKGALESHFLKCPKPRAQEITNLADSLQLEKEVVRVWFCNRRQKEKR belongs -0.398 ± 0.065; to KKRTSIEVSVKGALESHFLKCPKPHAQEITNLADSLQLEKEVVRVWFCNRRQKEKR, -0.593 ± 0.17; to KKRTSIEVSVKGALESHFLKCPKPVAQEITNLADSLQLEKEVVRVWFCNRRQKEKR, -0.45 ± 0.081.
Take KKRTSIEVSVKGALESHFLKCPKPPAQEITNLADSLQLEKEVVRVWFCNRRQKEKR: the abundance fitness was -0.373 ± 0.14.
Consider KKRTSIEVSVKGALESHFLKCPKPYAQEITNLADSLQLEKEVVRVWFCNRRQKEKR, for which the abundance fitness is -0.66 ± 0.13.
